Assay results: publication PMC6198510 (2018)

Columns and labels:
[1] = molecular target: JK18; experiment: FP
[2] = molecular target: JK16; experiment: FP
[3] = molecular target: JK18; experiment: FP; direct titration
[4] = molecular target: JK16; experiment: FP; direct titration

B1: c-Jun N-terminal kinase 3 (enzyme)
chain: MSLHFLYYCSEPTLDVKIAFCQGFDKQVDVSYIAKHYNMSKSKVDNQFYSVEVGDSTFTVLKRYQNLKPIGSGAQGIVCAAYDAVLDRNVAIKKLSRPFQNQTHAKRAYRELVLMKCVNHKNIISLLNVFTPQKTLEEFQDVYLVMELMDANLCQVIQMELDHERMSYLLYQMLCGIKHLHSAGIIHRDLKPSNIVVKSDCTLKILDFGLARTAGTSFMMTPYVVTRYYRAPEVILGMGYKENVDIWSVGCIMGEMVRHKILFPGRDYIDQWNKVIEQLGTPCPEFMKKLQPTVRNYVENRPKYAGLTFPKLFPDSLFPADSEHNKLKASQARDLLSKMLVIDPAKRISVDDALQHPYINVWYDPAEVEAPPPQIYDKQLDEREHTIEEWKELIYKEVMNSEEKTKNGVVKGQPSPSGAAVNSSESLPPSSSVNDISSMSTDQTLASDTDSSLEASAGPLGCCR
- Kd [1]: 4.1 µM
- Kd [2]: 6.7 µM
- Kd [3]: 4.1 µM
- Kd [4]: 6.7 µM
